{"source": "patent US20130039933", "key": {"[1]": {"target": "A366 peptide (STING peptide substrate with alanine at 366)"}, "[2]": {"target": "S366 peptide (STING peptide substrate with serine 366)"}}}
{"protein": "IRAK4 (protein) MNKPITPSTYVRCLNVGLIRKLSDFIDPQEGWKKLAVAIKKPSGDDRYNQFHIRRFEALLQTGKSPTSELLFDWGTTNCTVGDLVDLLIQNEFFAPASLLLPDAVPKTANTLPSKEAITVQQKQMPFCDKDRTLMTPVQNLEQSYMPPDSSSPENKSLEVSDTRFHSFSFYELKNVTNNFDERPISVGGNKMGEGGFGVVYKGYVNNTTVAVKKLAAMVDITTEELKQQFDQEIKVMAKCQHENLVELLGFSSDGDDLCLVYVYMPNGSLLDRLSCLDGTPPLSWHMRCKIAQGAANGINFLHENHHIHRDIKSANILLDEAFTAKISDFGLARASEKFAQTVMTSRIVGTTAYMAPEALRGEITPKSDIYSFGVVLLEIITGLPAVDEHREPQLLLDIKEEIEDEEKTIEDYIDKKMNDADSTSVEAMYSVASQCLHEKKNKRPDIKKVQQLLQEMTAS", "values": [{"measurement": "Activity (cpm)", "setting": "[1]", "value": 7440, "unit": "cpm"}, {"measurement": "Activity (cpm)", "setting": "[2]", "value": 50400, "unit": "cpm"}, {"measurement": "Fold induction", "setting": "[2]", "value": 6.77, "unit": "fold"}]}
{"protein": "NEK9 (protein) MSVLGEYERHCDSINSDFGSESGGCGDSSPGPSASQGPRAGGGAAEQEELHYIPIRVLGRGAFGEATLYRRTEDDSLVVWKEVDLTRLSEKERRDALNEIVILALLQHDNIIAYYNHFMDNTTLLIELEYCNGGNLYDKILRQKDKLFEEEMVVWYLFQIVSAVSCIHKAGILHRDIKTLNIFLTKANLIKLGDYGLAKKLNSEYSMAETLVGTPYYMSPELCQGVKYNFKSDIWAVGCVIFELLTLKRTFDATNPLNLCVKIVQGIRAMEVDSSQYSLELIQMVHSCLDQDPEQRPTADELLDRPLLRKRRREMEEKVTLLNAPTKRPRSSTVTEAPIAVVTSRTSEVYVWGGGKSTPQKLDVIKSGCSARQVCAGNTHFAVVTVEKELYTWVNMQGGTKLHGQLGHGDKASYRQPKHVEKLQGKAIRQVSCGDDFTVCVTDEGQLYAFGSDYYGCMGVDKVAGPEVLEPMQLNFFLSNPVEQVSCGDNHVVVLTRNKEVYSWGCGEYGRLGLDSEEDYYTPQKVDVPKALIIVAVQCGCDGTFLLTQSGKVLACGLNEFNKLGLNQCMSGIINHEAYHEVPYTTSFTLAKQLSFYKIRTIAPGKTHTAAIDERGRLLTFGCNKCGQLGVGNYKKRLGINLLGGPLGGKQVIRVSCGDEFTIAATDDNHIFAWGNGGNGRLAMTPTERPHGSDICTSWPRPIFGSLHHVPDLSCRGWHTILIVEKVLNSKTIRSNSSGLSIGTVFQSSSPGGGGGGGGGEEEDSQQESETPDPSGGFRGTMEADRGMEGLISPTEAMGNSNGASSSCPGWLRKELENAEFIPMPDSPSPLSAAFSESEKDTLPYEELQGLKVASEAPLEHKPQVEASSPRLNPAVTCAGKGTPLTPPACACSSLQVEVERLQGLVLKCLAEQQKLQQENLQIFTQLQKLNKKLEGGQQVGMHSKGTQTAKEEMEMDPKPDLDSDSWCLLGTDSCRPSL", "values": [{"measurement": "Activity (cpm)", "setting": "[1]", "value": 6980, "unit": "cpm"}, {"measurement": "Activity (cpm)", "setting": "[2]", "value": 26300, "unit": "cpm"}, {"measurement": "Fold induction", "setting": "[2]", "value": 3.77, "unit": "fold"}]}
{"protein": "MEKK1 (protein) NQKCKEKMEAEEEEALAIAMAMSASQDALPIVPQLQVENGEDIIIIQQDTPETLPGHTKAKQPYREDTEWLKGQQIGLGAFSSCYQAQDVGTGTLMAVKQVTYVRNTSSEQEEVVEALREEIRMMSHLNHPNIIRMLGATCEKSNYNLFIEWMAGGSVAHLLSKYGAFKESVVINYTEQLLRGLSYLHENQIIHRDVKGANLLIDSTGQRLRIADFGAAARLASKGTGAGEFQGQLLGTIAFMAPEVLRGQQYGRSCDVWSVGCAIIEMACAKPPWNAEKHSNHLALIFKIASATTAPSIPSHLSPGLRDVALRCLELQPQDRPPSRELLKHPVFRTTW", "values": [{"measurement": "Activity (cpm)", "setting": "[1]", "value": 11300, "unit": "cpm"}, {"measurement": "Activity (cpm)", "setting": "[2]", "value": 24900, "unit": "cpm"}, {"measurement": "Fold induction", "setting": "[2]", "value": 2.2, "unit": "fold"}]}
{"protein": "IKKα (protein) MERPPGLRPGAGGPWEMRERLGTGGFGNVCLYQHRELDLKIAIKSCRLELSTKNRERWCHEIQIMKKLNHANVVKACDVPEELNILIHDVPLLAMEYCSGGDLRKLLNKPENCCGLKESQILSLLSDIGSGIRYLHENKIIHRDLKPENIVLQDVGGKIIHKIIDLGYAKDVDQGSLCTSFVGTLQYLAPELFENKPYTATVDYWSFGTMVFECIAGYRPFLHHLQPFTWHEKIKKKDPKCIFACEEMSGEVRFSSHLPQPNSLCSLVVEPMENWLQLMLNWDPQQRGGPVDLTLKQPRCFVLMDHILNLKIVHILNMTSAKIISFLLPPDESLHSLQSRIERETGINTGSQELLSETGISLDPRKPASQCVLDGVRGCDSYMVYLFDKSKTVYEGPFASRSLSDCVNYIVQDSKIQLPIIQLRKVWAEAVHYVSGLKEDYSRLFQGQRAAMLSLLRYNANLTKMKNTLISASQQLKAKLEFFHKSIQLDLERYSEQMTYGISSEKMLKAWKEMEEKAIHYAEVGVIGYLEDQIMSLHAEIMELQKSPYGRRQGDLMESLEQRAIDLYKQLKHRPSDHSYSDSTEMVKIIVHTVQSQDRVLKELFGHLSKLLGCKQKIIDLLPKVEVALSNIKEADNTVMFMQGKRQKEIWHLLKIACTQSSARSLVGSSLEGAVTPQTSAWLPPTSAEHDHSLSCVVTPQDGETSAQMIEENLNCLGHLSTIIHEANEEQGNSMMNLDWSWLTE", "values": [{"measurement": "Activity (cpm)", "setting": "[1]", "value": 2430, "unit": "cpm"}, {"measurement": "Activity (cpm)", "setting": "[2]", "value": 6890, "unit": "cpm"}, {"measurement": "Fold induction", "setting": "[2]", "value": 2.83, "unit": "fold"}]}
{"protein": "RIPK5 (protein) FAASLRQLEAGHSGRLEKTEDLWLRVRKDHAPRLARLSLESCSLQDVLLHRKPKLGQELGRGQYGVVYLCDNWGGHFPCALKSVVPPDEKHWNDLALEFHYMRSLPKHERLVDLHGSVIDYNYGGGSSIAVLLIMERLHRDLYTGLKAGLTLETRLQIALDVVEGIRFLHSQGLVHRDIKLKNVLLDKQNRAKITDLGFCKPEAMMSGSIVGTPIHMAPELFTGKYDNSVDVYAFGILFWYICSGSVKLPEAFERCASKDHLWNNVRRGARPERLPVFDEECWQLMEACWDGDPLKRPLLGIVQPMLQGIMNRLCKSNSEQPNRGLDDST", "values": [{"measurement": "Activity (cpm)", "setting": "[1]", "value": 1330, "unit": "cpm"}, {"measurement": "Activity (cpm)", "setting": "[2]", "value": 16000, "unit": "cpm"}, {"measurement": "Fold induction", "setting": "[2]", "value": 12, "unit": "fold"}]}
{"protein": "TBK1 (protein kinase of the kinase panel) (protein) MQSTSNHLWLLSDILGQGATANVFRGRHKKTGDLFAIKVFNNISFLRPVDVQMREFEVLKKLNHKNIVKLFAIEEETTTRHKVLIMEFCPCGSLYTVLEEPSNAYGLPESEFLIVLRDVVGGMNHLRENGIVHRDIKPGNIMRVIGEDGQSVYKLTDFGAARELEDDEQFVSLYGTEEYLHPDMYERAVLRKDHQKKYGATVDLWSIGVTFYHAATGSLPFRPFEGPRRNKEVMYKIITGKPSGAISGVQKAENGPIDWSGDMPVSCSLSRGLQVLLTPVLANILEADQEKCWGFDQFFAETSDILHRMVIHVFSLQQMTAHKIYIHSYNTATIFHELVYKQTKIISSNQELIYEGRRLVLEPGRLAQHFPKTTEENPIFVVSREPLNTIGLIYEKISLPKVHPRYDLDGDASMAKAITGVVCYACRIASTLLLYQELMRKGIRWLIELIKDDYNETVHKKTEVVITLDFCIRNIEKTVKVYEKLMKINLEAAELGEISDIHTKLLRLSSSQGTIETSLQDIDSRLSPGGSLADAWAHQEGTHPKDRNVEKLQVLLNCMTEIYYQFKKDKAERRLAYNEEQIHKFDKQKLYYHATKAMTHFTDECVKKYEAFLNKSEEWIRKMLHLRKQLLSLTNQCFDIEEEVSKYQEYTNELQETLPQKMFTASSGIKHTMTPIYPSSNTLVEMTLGMKKLKEEMEGVVKELAENNHILERFGSLTMDGGLRNVDCL", "values": [{"measurement": "Activity (cpm)", "setting": "[1]", "value": 6600, "unit": "cpm"}, {"measurement": "Activity (cpm)", "setting": "[2]", "value": 16700, "unit": "cpm"}, {"measurement": "Fold induction", "setting": "[2]", "value": 2.52, "unit": "fold"}]}
{"protein": "PKCι (protein) MPTQRDSSTMSHTVAGGGSGDHSHQVRVKAYYRGDIMITHFEPSISFEGLCNEVRDMCSFDNEQLFTMKWIDEEGDPCTVSSQLELEEAFRLYELNKDSELLIHVFPCVPERPGMPCPGEDKSIYRRGARRWRKLYCANGHTFQAKRFNRRAHCAICTDRIWGLGRQGYKCINCKLLVHKKCHKLVTIECGRHSLPQEPVMPMDQSSMHSDHAQTVIPYNPSSHESLDQVGEEKEAMNTRESGKASSSLGLQDFDLLRVIGRGSYAKVLLVRLKKTDRIYAMKVVKKELVNDDEDIDWVQTEKHVFEQASNHPFLVGLHSCFQTESRLFFVIEYVNGGDLMFHMQRQRKLPEEHARFYSAEISLALNYLHERGIIYRDLKLDNVLLDSEGHIKLTDYGMCKEGLRPGDTTSTFCGTPNYIAPEILRGEDYGFSVDWWALGVLMFEMMAGRSPFDIVGSSDNPDQNTEDYLFQVILEKQIRIPRSLSVKAASVLKSFLNKDPKERLGCHPQTGFADIQGHPFFRNVDWDMMEQKQVVPPFKPNISGEFGLDNFDSQFTNEPVQLTPDDDDIVRKIDQSEFEGFEYINPLLMSAEECV", "values": [{"measurement": "Activity (cpm)", "setting": "[1]", "value": 6810, "unit": "cpm"}, {"measurement": "Activity (cpm)", "setting": "[2]", "value": 12800, "unit": "cpm"}, {"measurement": "Fold induction", "setting": "[2]", "value": 1.88, "unit": "fold"}]}
{"protein": "ULK1 (protein) MEPGRGGTETVGKFEFSRKDLIGHGAFAVVFKGRHREKHDLEVAVKCINKKNLAKSQTLLGKEIKILKELKHENIVALYDFQEMANSVYLVMEYCNGGDLADYLHAMRTLSEDTIRLFLQQIAGAMRLLHSKGIIHRDLKPQNILLSNPAGRRANPNSIRVKIADFGFARYLQSNMMAATLCGSPMYMAPEVIMSQHYDGKADLWSIGTIVYQCLTGKAPFQASSPQDLRLFYEKNKTLVPTIPRETSAPLRQLLLALLQRNHKDRMDFDEFFHHPFLDASPSVRKSPPVPVPSYPSSGSGSSSSSSSTSHLASPPSLGEMQQLQKTLASPADTAGFLHSSRDSGGSKDSSCDTDDFVMVPAQFPGDLVAEAPSAKPPPDSLMCSGSSLVASAGLESHGRTPSPSPPCSSSPSPSGRAGPFSSSRCGASVPIPVPTQVQNYQRIERNLQSPTQFQTPRSSAIRRSGSTSPLGFARASPSPPAHAEHGGVLARKMSLGGGRPYTPSPQVGTIPERPGWSGTPSPQGAEMRGGRSPRPGSSAPEHSPRTSGLGCRLHSAPNLSDLHVVRPKLPKPPTDPLGAVFSPPQASPPQPSHGLQSCRNLRGSPKLPDFLQRNPLPPILGSPTKAVPSFDFPKTPSSQNLLALLARQ", "values": [{"measurement": "Activity (cpm)", "setting": "[1]", "value": 12200, "unit": "cpm"}, {"measurement": "Activity (cpm)", "setting": "[2]", "value": 209000, "unit": "cpm"}, {"measurement": "Fold induction", "setting": "[2]", "value": 17.1, "unit": "fold"}]}
{"protein": "NEK2 (protein) MPSRAEDYEVLYTIGTGSYGRCQKIRRKSDGKILVWKELDYGSMTEAEKQMLVSEVNLLRELKHPNIVRYYDRIIDRTNTTLYIVMEYCEGGDLASVITKGTKERQYLDEEFVLRVMTQLTLALKECHRRSDGGHTVLHRDLKPANVFLDGKQNVKLGDFGLARILNHDTSFAKTFVGTPYYMSPEQMNRMSYNEKSDIWSLGCLLYELCALMPPFTAFSQKELAGKIREGKFRRIPYRYSDELNEIITRMLNLKDYHRPSVEEILENPLIADLVADEQRRNLERRGRQLGEPEKSQDSSPVLSELKLKEIQLQERERALKAREERLEQKEQELCVRERLAEDKLARAENLLKNYSLLKERKFLSLASNPELLNLPSSVIKKKVHFSGESKENIMRSENSESQLTSKSKCKDLKKRLHAAQLRAQALSDIEKNYQLKSRQILGMR", "values": [{"measurement": "Activity (cpm)", "setting": "[1]", "value": 8700, "unit": "cpm"}, {"measurement": "Activity (cpm)", "setting": "[2]", "value": 162000, "unit": "cpm"}, {"measurement": "Fold induction", "setting": "[2]", "value": 18.6, "unit": "fold"}]}
